The values that follow come from patent US6335176B1, “Incorporation of phosphorylation sites” (Pharmacopeia, Inc., priority 1998, dated 2002).

Bridge positions count the residues as written; N and C are the ends. Square brackets hold non-standard residues; d marks the D form. Ends that are not written are not given here. I, II: the chains in the order shown. pS = N[C@@H](COP(=O)(O)O)C(=O)O

Experiment [1] has as its target T1, EpoR-Fc (Homo sapiens, UniProt P19235).
T1 construct: containing the extracellular domain of the erythropoietin receptor fused to the Fc region of human IgG
T1 sequence (P19235 25-250 limits assumed): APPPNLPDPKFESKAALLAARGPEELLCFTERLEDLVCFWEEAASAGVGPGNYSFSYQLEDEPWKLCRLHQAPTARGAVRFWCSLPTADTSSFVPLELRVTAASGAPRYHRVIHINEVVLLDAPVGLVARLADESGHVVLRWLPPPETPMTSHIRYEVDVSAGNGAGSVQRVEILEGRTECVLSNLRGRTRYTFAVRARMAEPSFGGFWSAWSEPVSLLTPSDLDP
Nature of the experiment: Saturation binding of Epo-Fc-[33P]phosphopeptide A to EpoR-Fc surface-coated plates. As to the method:
(§1) Ligand Binding Assays in Elisa Plate Format. Costar EIA 96-well microtiter plates (assay plates) were coated with 40 ul/well of a solution of anchoring antibody (˜1-5 ug/ml) or binding protein (0.1-0.5 ug/ml) in TBS and incubated overnight at 4° C. Plates were then blocked with 80 ul/well of 1% BSA/TBS for 30 min. Following removal of the blocking protein, 40 ul/well of receptor or receptor fusion protein (0.1-0.5 ug/ml) was added to the plate and incubated at ambient temperature for one hr. if an anchoring antibody step was used. The assay plate was then washed with TBS/0.01% BSA and 40 ul/well ligand at indicated concentrations was added. The assay plate was allowed to incubate at ambient temp. for ˜1-3 hr. with shaking and then washed three times with TBS/0.01% Tween 20 using a SkanWasher300 plate washer (Skatron, Sterling, Va.). Radiolabel was detected by the addition of 80 ul/well of Optiphase (Wallac, Turku, Finland) and the assay plate counted on a Wallace MicroBeta scintillation counter.
The cytokine receptor for erythropoietin was studied as a recombinant soluble Fc-fusion protein containing the extracellular domain of the erythropoietin receptor fused to the Fc region of human IgG. The ligand for this receptor, erythropoietin (Epo) was also prepared as an Fc-fusion, specifically as a fusion to the Fc region of mouse IgG. […]

Experiment [2] addresses T2, CXC2 receptor (Homo sapiens, UniProt P25025).
T2 construct: expressed in transfected cells; host or cells: CHO cells
T2 sequence (P25025 1-360): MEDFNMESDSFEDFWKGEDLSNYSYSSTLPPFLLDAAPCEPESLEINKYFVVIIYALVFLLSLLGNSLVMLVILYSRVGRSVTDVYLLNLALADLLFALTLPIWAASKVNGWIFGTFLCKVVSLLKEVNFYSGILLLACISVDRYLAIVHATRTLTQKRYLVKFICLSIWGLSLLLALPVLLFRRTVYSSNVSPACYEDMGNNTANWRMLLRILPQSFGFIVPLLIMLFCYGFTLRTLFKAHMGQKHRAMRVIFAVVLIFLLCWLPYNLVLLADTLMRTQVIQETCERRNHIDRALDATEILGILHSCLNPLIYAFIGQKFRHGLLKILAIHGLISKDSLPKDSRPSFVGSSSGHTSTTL
The experiment is described as follows: Binding of IL8-[33P]phosphopeptide A to CXC2 receptors on CHO cells. As to the method: (§2) Ligand Binding Assays using Cells or Membranes. Cultured cells expressing the receptor of interest were suspended to ˜1.6×10^6 per ml in DMEM containing 0.1% FBS. 100 ul aliquots were incubated in a 96-well U-bottom polypropylene microtiter plate (assay plate) containing the indicated ligands. After the appropriate incubation time (˜1-3 hrs) cells were transferred to 1.5 ml eppendorf tubes and centrifuged at 2000 rpm (358×g) for 2 min at 6° C., supernatants aspirated and cells resuspended in 1 ml cell media and centrifuged again. The washed cells were resuspended in 20 ul of cell media and transferred to a microtiter plate, 80 ul/well of Optiphase® (Wallac, Turku, Finland) scintillation cocktail added and plates counted in a Wallac MicroBeta scintillation counter. For cells or membranes harvested by filtration, transfers from the assay plate were made directly to a Millipore 1.2 um GF/C filter plate treated or untreated with 0.3% PEI. Wells were washed with DMEM (3×100 ul) and a final wash with 100 ul water. Scintillation cocktail was added as described above.
(§3) Several ligands for commonly studied receptor families, G protein-coupled receptors (GPCRs) and cytokine receptors were labeled using the reagent of the invention. […]

Experiment [3] concerns the target T3, NK2 receptor (Rattus norvegicus, UniProt P16610).
T3 construct: expressed in transfected cells; host or cells: CHO cells
T3 sequence (P16610 1-390): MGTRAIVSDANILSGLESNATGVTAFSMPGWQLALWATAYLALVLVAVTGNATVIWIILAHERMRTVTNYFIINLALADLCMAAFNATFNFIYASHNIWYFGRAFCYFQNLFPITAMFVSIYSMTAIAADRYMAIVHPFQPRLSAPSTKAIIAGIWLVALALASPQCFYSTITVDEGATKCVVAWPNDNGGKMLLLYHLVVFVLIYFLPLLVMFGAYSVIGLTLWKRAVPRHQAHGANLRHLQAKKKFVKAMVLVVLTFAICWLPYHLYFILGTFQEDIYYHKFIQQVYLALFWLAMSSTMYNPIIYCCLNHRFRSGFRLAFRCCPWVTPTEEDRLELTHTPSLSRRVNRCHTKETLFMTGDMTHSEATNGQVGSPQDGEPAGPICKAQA
Nature of the experiment: Binding of NKA-[33P]phosphopeptide A to NK2 receptors on CHO cells (whole cell). As to the method: as §2, §3

Experiment [4] concerns the target T4, ObR-Fc (Homo sapiens, UniProt P48357).
T4 construct: containing the extracellular domain of the ObR fused to the Fc region of human IgG; purchased R&D Systems, Minneapolis, Minn
T4 sequence (P48357 22-839 limits assumed): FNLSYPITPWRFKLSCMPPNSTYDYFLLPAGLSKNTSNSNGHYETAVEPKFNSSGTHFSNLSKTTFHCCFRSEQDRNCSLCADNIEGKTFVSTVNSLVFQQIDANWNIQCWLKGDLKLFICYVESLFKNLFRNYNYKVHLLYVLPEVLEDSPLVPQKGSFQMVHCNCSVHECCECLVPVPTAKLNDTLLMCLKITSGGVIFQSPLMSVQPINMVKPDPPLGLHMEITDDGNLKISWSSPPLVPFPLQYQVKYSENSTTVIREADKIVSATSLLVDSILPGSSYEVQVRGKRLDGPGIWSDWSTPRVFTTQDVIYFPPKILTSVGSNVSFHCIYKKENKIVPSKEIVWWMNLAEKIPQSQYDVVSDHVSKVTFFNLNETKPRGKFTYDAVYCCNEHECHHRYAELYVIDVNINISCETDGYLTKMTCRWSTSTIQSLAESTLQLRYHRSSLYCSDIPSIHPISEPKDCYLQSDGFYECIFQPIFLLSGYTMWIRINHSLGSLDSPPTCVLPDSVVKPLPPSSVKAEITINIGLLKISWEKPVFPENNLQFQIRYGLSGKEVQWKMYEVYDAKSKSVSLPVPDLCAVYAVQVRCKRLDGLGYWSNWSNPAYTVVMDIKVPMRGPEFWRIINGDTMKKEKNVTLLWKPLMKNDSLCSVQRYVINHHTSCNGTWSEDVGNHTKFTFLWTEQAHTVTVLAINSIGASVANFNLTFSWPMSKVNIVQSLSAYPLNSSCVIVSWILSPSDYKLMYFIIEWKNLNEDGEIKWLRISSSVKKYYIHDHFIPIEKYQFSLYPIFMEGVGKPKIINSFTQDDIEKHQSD
The experiment is described as follows: Saturation binding of leptin-[33P]phosphopeptide A to ObR-Fc surface-coated plates. As to conditions: at the highest concentration of labeled ligand. As to the method: as §1
The cytokine receptor for leptin, the Ob receptor (ObR), was studied as a soluble Fc-fusion protein containing the extracellular domain of the ObR fused to the Fc region of human IgG (R&D Systems, Minneapolis, Minn.). The ligand for this receptor, leptin (R&D Systems) was phosphorylated according to the method of invention as described above.

In experiment [5] the target is NK2 receptor recombinantly expressed in CHO cells. Nature of the experiment: saturation radioligand binding, CHO cells, 160,000 cells/assay (FIG. 9A).
The mark [6] stands for this setting: saturation binding, 160,000 cells/assay.

Sequence of NK2 receptor recombinantly expressed in CHO cells (P21452 whole entry): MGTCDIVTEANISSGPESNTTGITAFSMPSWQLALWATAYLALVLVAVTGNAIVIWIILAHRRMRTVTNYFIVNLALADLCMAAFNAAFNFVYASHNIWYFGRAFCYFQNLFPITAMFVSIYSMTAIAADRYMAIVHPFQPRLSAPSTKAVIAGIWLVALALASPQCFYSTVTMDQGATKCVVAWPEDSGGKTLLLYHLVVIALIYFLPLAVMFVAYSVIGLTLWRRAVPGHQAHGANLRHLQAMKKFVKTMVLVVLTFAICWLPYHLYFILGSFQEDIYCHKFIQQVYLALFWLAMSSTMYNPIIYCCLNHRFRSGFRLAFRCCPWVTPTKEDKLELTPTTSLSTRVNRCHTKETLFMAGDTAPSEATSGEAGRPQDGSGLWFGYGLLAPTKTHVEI

Consider “N-α-acetyl-S-[Epo-Fc-8-amido-(6-aminothioacetyl)hexonyl]cys-ser-arg-arg-ala-[^33PO3]phosphoser-val-tyr-amide [Epo-Fc-[^33P]phosphopeptide A]”, for which, in experiment [1], the “amount detected at the highest concentration of labeled ligand” value was roughly 20 Fmol/well.

As for “N-α-acetyl-S-[IL8-amido-(6-aminothioacetyl)hexonyl]cys-ser-arg-arg-ala-[^33PO3]phosphoser-val-tyr-amide1-4 [IL8-[^33P]phosphopeptide A]”, the “specific binding to its receptor” value in experiment [2] (33P-labeled ligand, FIG. 8) is “bound specifically”. Besides, in experiment [2] (setting [6]), the Bmax is recorded as 110,000 receptors/cell.

Regarding “N-α-acetyl-S-[NKA-lys2N^e-amido-(6-aminothioacetyl)hexonyl]cys-ser-arg-arg-ala-[^33PO3]phosphoser-val-tyr-amide (peptide 1 HKTRSFVGLM-NH2; peptide 2 Ac-CSRRASVY-NH2; bridge I:2-II:1; not fully specified (some residues, bridges); printed as N-α-acetyl-S-[NKA-lys2N^e-amido-(6-aminothioacetyl)hexonyl]cys-ser-arg-arg-ala-[^33PO3]phosphoser-val-tyr-amide; also: phosphoserine carries [33P]phosphate label) [NKA-[^33P]phosphopeptide A]”, in experiment [3] (33P-labeled ligand, FIG. 8), the “specific binding to its receptor” value is recorded as “bound specifically”. The Bmax in experiment [3] (setting [6]) is on record as 700,000 receptors/cell.

With “N-α-acetyl-S-[leptin-amido-)6-aminothioacetyl)hexonyl]cys-ser-arg-arg-ala-[^33PO3]phosphoser-val-tyr-amide1-2 [leptin [^33P]phosphopeptide A]”, the saturation binding entry in experiment [4] is recorded as “Binding was detected”.

B1: Neurokinin A-[^33PO3]peptide A conjugate (NKA-lys2N^e-[^33PO3]peptide A) (peptide)
peptide 1: HKTRSFVGLM-NH2
peptide 2: Ac-CSRRA[pS]VY-NH2
modifications: bridge I:2-II:1; not fully specified (some residues, bridges); printed as N-&agr,-acetyl-S-[NKA-lys2Ne-amido-(6-aminothioacetyl)hexonyl]cys-ser-arg-arg-ala-[33PO3]phosphoser-val-tyr-amide; also: 33P-labelled phosphate on phosphoserine of chain 2
As for B1, the Bmax (receptors/cell) in experiment [5] was determined as 700000.
